Reference: paper PMC7307139

Biological target: T1, vesicular stomatitis virus (VSV) phosphoprotein (P), wild type (vesicular stomatitis virus (VSV)), P03520
T1 chain: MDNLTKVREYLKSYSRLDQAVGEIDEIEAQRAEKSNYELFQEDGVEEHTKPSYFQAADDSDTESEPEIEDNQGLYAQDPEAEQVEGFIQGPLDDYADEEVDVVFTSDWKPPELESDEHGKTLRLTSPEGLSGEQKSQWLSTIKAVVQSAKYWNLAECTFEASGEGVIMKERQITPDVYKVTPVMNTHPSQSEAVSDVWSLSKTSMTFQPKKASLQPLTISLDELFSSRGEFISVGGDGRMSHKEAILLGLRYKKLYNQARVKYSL
Test: SEC-MALS
Details: remark: other sources report otherwise

B1: vesicular stomatitis virus (VSV) phosphoprotein (P), wild type, P03520 1-265 (natural protein)
chain: MDNLTKVREYLKSYSRLDQAVGEIDEIEAQRAEKSNYELFQEDGVEEHTKPSYFQAADDSDTESEPEIEDNQGLYAQDPEAEQVEGFIQGPLDDYADEEVDVVFTSDWKPPELESDEHGKTLRLTSPEGLSGEQKSQWLSTIKAVVQSAKYWNLAECTFEASGEGVIMKERQITPDVYKVTPVMNTHPSQSEAVSDVWSLSKTSMTFQPKKASLQPLTISLDELFSSRGEFISVGGDGRMSHKEAILLGLRYKKLYNQARVKYSL
B1 gave a stoichiometry N of 2.
